In patent US20220153832A1 (PIONYR IMMUNOTHERAPEUTICS, published 2022):
Numbering of substitutions follows the chain as printed. Values belong to the binder of their own block, whether it stands above or below them.

Tests used:
human MSR1 (R&D Systems) = biological target: T1, human MSR1 (R&D Systems) (human, UniProt P21757 77-451, limits assumed); test: ELISA on MSR1
T1 construct: Related scavenger receptor used as specificity control; also called MSRI
T1 sequence (looked up): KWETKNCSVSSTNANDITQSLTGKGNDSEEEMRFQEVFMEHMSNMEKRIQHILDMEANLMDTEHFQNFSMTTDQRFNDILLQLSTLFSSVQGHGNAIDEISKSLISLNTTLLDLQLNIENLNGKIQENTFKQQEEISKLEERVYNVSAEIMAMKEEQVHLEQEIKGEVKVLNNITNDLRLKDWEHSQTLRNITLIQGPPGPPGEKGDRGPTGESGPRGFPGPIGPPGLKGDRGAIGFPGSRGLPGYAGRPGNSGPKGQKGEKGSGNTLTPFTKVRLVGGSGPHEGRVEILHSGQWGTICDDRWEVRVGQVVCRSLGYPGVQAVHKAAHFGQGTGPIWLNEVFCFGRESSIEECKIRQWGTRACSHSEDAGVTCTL
How it was run: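 Cross-reactivity with human MSR1 (R&D Systems) was tested by ELISA. Maxisorp plates were coated overnight with 0.1 ug/well protein in DPBS with Ca2+ and Mg2+, then blocked with PBS/Ca2+/2% FBS. Hybridoma supernatants were added 1:1 in that buffer for 1 hour at room temperature. Detection used HRP-conjugated anti-rat IgG for 1 hr, then TMB and A450.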

[1] = biological target: T2, human MARCO (R&D biosystems), recombinant, coated in the LDL competition assay (human, UniProt Q9UEW3 70-520, limits assumed); test: LDL competition on coated human MARCO (MSD), competitor biotinylated hLDL
T2 construct: Bought protein
T2 sequence (looked up): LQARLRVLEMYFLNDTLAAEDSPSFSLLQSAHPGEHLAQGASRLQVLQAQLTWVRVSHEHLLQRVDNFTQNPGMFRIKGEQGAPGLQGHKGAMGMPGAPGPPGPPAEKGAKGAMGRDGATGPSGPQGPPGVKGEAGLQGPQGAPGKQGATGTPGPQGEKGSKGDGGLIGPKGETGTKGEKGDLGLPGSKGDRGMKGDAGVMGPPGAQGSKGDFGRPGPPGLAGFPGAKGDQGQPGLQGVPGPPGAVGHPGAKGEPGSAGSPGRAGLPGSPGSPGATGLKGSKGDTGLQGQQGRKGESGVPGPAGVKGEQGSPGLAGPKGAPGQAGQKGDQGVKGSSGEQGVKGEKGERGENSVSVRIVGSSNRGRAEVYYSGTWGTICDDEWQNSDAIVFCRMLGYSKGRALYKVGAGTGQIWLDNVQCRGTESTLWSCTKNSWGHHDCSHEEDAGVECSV
Protocol: A high-binding, 96-well MSD plate was coated with 4 μg/ml mouse MARCO or 4 μg/ml human MARCO (R&D biosystems). After the plate was blocked with PBST and 5% BSA for an hour, titrated anti-mouse or anti-human MARCO antibodies were added to the plate and incubated for 30 minutes. Biotinylated hLDL (860 pM or 2 μg/ml) were added to the antibody, and the antibody/LDL mixture was incubated for an hour to allow the mixture to reach binding equilibrium. The plates were washed and bound biotinylated LDL was detected with Sulfo-tagged streptavidin that generates an electrocheminlumenscent signal when read buffer is added and electricity is applied to the electrodes in the MSD plate. IC50's were calculated using a 4-parameter curve fit in GraphPad Prism software.

[2] = biological target: T3, Cynomolgus MARCO, full length, on cells (cynomolgus, UniProt A0A2K5X0Z2 1-519); test: flow cytometry, cells overexpressing cyno MARCO
T3 construct: whole, on cells; also called cyno MARCO; CyMARCO
T3 sequence: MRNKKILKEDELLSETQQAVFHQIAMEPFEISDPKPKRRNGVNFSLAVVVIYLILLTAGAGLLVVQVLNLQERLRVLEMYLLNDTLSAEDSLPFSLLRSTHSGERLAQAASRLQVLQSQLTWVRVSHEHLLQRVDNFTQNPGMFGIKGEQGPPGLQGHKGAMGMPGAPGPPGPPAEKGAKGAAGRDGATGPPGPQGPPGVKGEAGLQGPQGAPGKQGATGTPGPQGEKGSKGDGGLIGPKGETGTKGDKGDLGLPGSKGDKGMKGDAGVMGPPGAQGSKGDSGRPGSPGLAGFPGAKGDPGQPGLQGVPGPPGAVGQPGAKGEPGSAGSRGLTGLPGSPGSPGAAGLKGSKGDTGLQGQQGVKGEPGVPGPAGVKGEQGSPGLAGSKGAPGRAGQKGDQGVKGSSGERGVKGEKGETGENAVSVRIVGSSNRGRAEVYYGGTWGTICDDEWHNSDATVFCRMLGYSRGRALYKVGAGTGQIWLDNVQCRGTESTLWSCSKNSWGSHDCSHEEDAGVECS

[3] = biological target: T4, Human Macrophage Receptor with Collagenous Structure (MARCO), full length, on cells (human, UniProt Q9UEW3 1-520); test: flow cytometry, 293T HuMARCO cells
T4 construct: the cell type is named under assay; also called huMARCO; HuMARCO
T4 sequence: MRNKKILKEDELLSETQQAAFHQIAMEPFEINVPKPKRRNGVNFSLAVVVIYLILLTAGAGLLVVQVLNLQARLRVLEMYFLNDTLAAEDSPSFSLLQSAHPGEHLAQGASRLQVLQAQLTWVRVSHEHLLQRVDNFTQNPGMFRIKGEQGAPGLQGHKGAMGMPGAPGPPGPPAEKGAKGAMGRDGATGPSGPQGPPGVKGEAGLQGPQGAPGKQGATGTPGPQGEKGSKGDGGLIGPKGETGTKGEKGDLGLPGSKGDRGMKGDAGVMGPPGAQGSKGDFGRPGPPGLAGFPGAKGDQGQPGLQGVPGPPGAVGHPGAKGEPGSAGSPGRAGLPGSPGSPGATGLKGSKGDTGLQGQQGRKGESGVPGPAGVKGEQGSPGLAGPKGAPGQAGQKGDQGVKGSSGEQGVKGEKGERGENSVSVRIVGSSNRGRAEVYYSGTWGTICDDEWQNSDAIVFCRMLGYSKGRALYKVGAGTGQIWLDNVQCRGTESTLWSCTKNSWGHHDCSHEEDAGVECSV
How it was run: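 Binding to HEK293T cells expressing human or cynomolgus MARCO was measured by flow cytometry at 100,000 cells/well after Zombie NIR viability staining. Antibodies started at 100 nM in an 8-point three-fold dilution in D-PBS/2% FBS/2 mM EDTA for 1 hr on ice, then APC goat anti-mouse IgG for 30 min on ice. Cells were acquired on an Attune NxT. Geometric mean fluorescence intensities were analysed in FlowJo and Prism.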

B2: PI-HX-3043 (antibody, rat IgG2a)
heavy: QVNLLQSRAALVKPGASVKLSCKASGYTFTDYYLHWVKQSHAKSLEWIGYINPNNAYTSYNEKFKSKATLTVDKSTNTAYMELSRLTSADSATYYCARDTTDYYNLHFAYWGQGTLVTVSSAETTAPSVYPLAPGTALKSNSMVTLGCLVKGYFPEPVTVTWNSGALSSGVHTFPAVLQSGLYTLTSSVTVPSSTWSSQAVTCNVAHPASSTKVDKKIVPRECNPCGCTGSEVSSVFIFPPKTKDVLTITLTPKVTCVVVDISQNDPEVRFSWFIDDVEVHTAQTHAPEKQSNSTLRSVSELPIVHRDWLNGKTFKCKVNSGAFPAPIEKSISKPEGTPRGPQVYTMAPPKEEMTQSQVSITCMVKGFYPPDIYTEWKMNGQPQENYKNTPPTMDTDGSYFLYSKLNVKKETWQQGNTFTCSVLHEGLHNHHTEKSLSHSP
light: DIQMTQSPASLSASLGETVSIECLTSEGISNDLAWYQQKSGKSPQLLIYDASRLEDGVPSRFSGSGSGTRYSLKISGMQTEDEADYFCQQSYKYPLTFGSGTKLEIKRADAAPTVSIFPPSTEQLATGGASVVCLMNNFYPRDISVKWKIDGTERRDGVLDSVTDQDSKDSTYSMSSTLSLTKADYESHNLYTCEVVHKTSSSPVVKSFNRNEC
notes: Parental rat hybridoma, rat IgG2a
EC50 [1]: 3.4 nM

B3: PI-3015-AB (antibody, human IgG1, kappa)
heavy: not shown
light: DIQMTQSPSSLSASVGDRVTITCRASEGISNDLAWYQQKPGKAPKLLIYAASRLQSGVPSRFSGSGSGTDYTLTISSMQPEDFATYYCQQSYKYPLTFGQGTKLEIKRTVAAPSVFIFPPSDEQLKSGTASVVCLLNNFYPREAKVQWKVDNALQSGNSQESVTEQDSKDSTYSLSSTLTLSKADYEKHKVYACEVTHQGLSSPVTKSFNRGEC
EC50 [2]: 1.73 nM

B4: PI-3010-AB (antibody, human IgG1, kappa)
heavy: not shown
light: DIQMTQSPASLSTSLGETVSIECLASEGISNDLAWYQQKSGKSPQLLIYAASRLQDGVPSRFSGSGSGTRYSLKISGMQPEDEADYFCQQSYKYPLTFGSGTKLEIKRTVAAPSVFIFPPSDEQLKSGTASVVCLLNNFYPREAKVQWKVDNALQSGNSQESVTEQDSKDSTYSLSSTLTLSKADYEKHKVYACEVTHQGLSSPVTKSFNRGEC
EC50 [2]: 1.48 nM

Now from value to binder:

binding result (human MSR1 (R&D Systems)): no binding
B1: PI-HX-3031 (antibody)
heavy: QVQLKESGPGLVQPSQTLSLTCTVSGFSLTSYHVSWVRQPPGKGLEWMGAIWTGGSIAYNSLLKSRLSISRDTSKSQVFLKMNSLQTEDTATYYCARDLSDYYSSYTSFDYWGQGVMVTVSTAETTAPSVYPLAPGTALKSNSMVTLGCLVKGYFPEPVTVTWNSGALSSGVHTFPAVLQSGLYTLTSSVTVPSSTWSSQAVTCNVAHPASSTKVDKKIVPRECNPCGCTGSEVSSVFIFPPKTKDVLTITLTPKVTCVVVDISQNDPEVRFSWFIDDVEVHTAQTHAPEKQSNSTLRSVSELPIVHRDWLNGKTFKCKVNSGAFPAPIEKSISKPEGTPRGPQVYTMAPPKEEMTQSQVSITCMVKGFYPPDIYTEWKMNGQPQENYKNTPPTMDTDGSYFLYSKLNVKKETWQQGNTFTCSVLHEGLHNHHTEKSLSHSP
light: B2 light with A13T, T25A, D50A, E55Q, T80P
notes: as for B2

binding result (human MSR1 (R&D Systems)): no binding | EC50 [1]: 8.2 nM
B5: PI-HX-3061 (antibody, rat IgG2a)
heavy: EVQLVESGGGLVQPGSSLKLSCVASKFTFSNYGMNWIRQAPKKGLEWIALIYYNSNNKYYADSVKGRFTISRDNSKNTLYLEMNSLRSEDTAMYYCAKSLTGGSDYFDSWGQGVMVTVSSAETTAPSVYPLAPGTALKSNSMVTLGCLVKGYFPEPVTVTWNSGALSSGVHTFPAVLQSGLYTLTSSVTVPSSTWPSQTVTCNVAHPASSTKVDKKIVPRNCGGDCKPCICTGSEVSSVFIFPPKPKDVLTITLTPKVTCVVVDISQDDPEVHFSWFVDDVEVHTAQTRPPEEQFNSTFRSVSELPILHQDWLNGRTFRCKVTSAAFPSPIEKTISKPEGRTQVPHVYTMSPTKEEMTQNEVSITCMVKGFYPPDIYVEWQMNGQPQENYKNTPPTMDTDGSYFLYSKLNVKKEKWQQGNTFTCSVLHEGLHNHHTEKSLSHSP
light: DVQMTQSPSYLAASPGESVSISCKASKSIGTFLAWYQEKPEKTNKLLIYSGSTLQSGTPSRFSGSGSGTDFTLTIRNLEPEDFAVYYCQQHDEYPFTFGSGTKLEIKRADAAPTVSIFPPSTEQLATGGASVVCLMNNFYPRDISVKWKIDGTERRDGVLDSVTDQDSKDSTYSMSSTLSLTKADYESHNLYTCEVVHKTSSSPVVKSFNRNEC
notes: Parental rat hybridoma, rat IgG2a; cross reactive with human and mouse MARCO

binding result [3]: no binding
B6: PI-HX-3021 (antibody, V domains shown)
VH: QVRLVQSGTALVRPGASVRMSCTASGYSFTDYWVSWVKQSHGQSLEWIGEIYPNSGTTNFNEKFEGKATLTVDKSTSTAYMELSRLTSEDSAIYYCTGEGTFDYWGQGVMVTVSS
VL: EIVLTQSPTTMAASPGEKVTITCRPSSSLSNMHWFQQKSGTSPKPWIYDTSKLASGVPDRFSGSGSGTSYSLTISSMEAEDAATYYCLQRSSYPPTFGAGTKLELK
notes: Rat IgG2a hybridoma antibody; Not the effector dead PI-3021; also called PI-3007 (name of the recombinant form)

binding result [3]: no binding
B7: PI-HX-3016 (antibody, rat IgG1, V domains shown)
VH: EVQLVESGGGLVKPGASLKLSCVASGFTFSDDWMNWVRQTPGKAMEWIGDIKYDGSYTNYVPSLKNRLTISRDNAKNTLYLQMTNVRSEDTATYYCTSGGVFDYWGQGVMVTVSS
VL: B6 VL with T5S, P25A, L29V, N31Y, S92G, L105V
notes: Rat IgG1 hybridoma antibody
